Results taken from the DeepSol protein solubility set.

Test: soluble on expression in E. coli; label from the status in PepcDB or PDB records

Sequence	soluble on expression in E. coli
MAHHHHHHMKATKAKSGNTATNAVPFNNAPLKIVFLDCDGVVSPFGGPLFAPRQMKFLADIINGSGAQIVLSSSWRTTDFGRKEVARQLTQFGMPVFIDCTPTLPDKPRSVEILSWIDSNKRKYNIVNFVALDDINLPLSAPDRNFFARHAIVTNATTGLTEANVKQALQMLSDTNNI	soluble
MTADANKSESLLCMDKAREAIKSGDTDKARRMLLKAKKLDPGQNIEFLTKKIDDMTNNTSSSSQTSSSRASEERSYAHDDHYDDPNLRNRKARSPVKKNGKTEPEPKQRSASRTPKLGVDYTSEQKELVERIRHCKDYYEILKIDKKASDDDIRKEYRKLALKLHPDKCRAPHATEAFKALGNAYAVLSDTDKRRQYDQYGAEAANSHTPTTRRRGGGHGAFFEHDYAHGFEAEFTPEEIFNMFFGGGFPTEQVRRRARYAQQQQYHHYEQQQSPYGPLLQLLPLIAIMVIGLLAQLMVGEPAYSLHQTSKFTIKRLTADLRVPYFVRTDFETSYRGRIRQVEQQVEDDYIQNLRMNCYKEQNLKETKLYRARWMRDEAMMRDAERTPLPSCIRLNEIYSH	soluble
MSLATKDPTAVERANLLNMAKLSIKGLIESALSFGRTLDSDYPPLQQFFVVMEHCLKHGLKGRKSFLSYNKTIWGPLELVEKLYPEAEEIGASVRDLPGLKTPLGRARAWLRLALMQKKMADYLRCLIIQRELLSEFYEYHALMMEEEGAVIVGLLVGLNVIDANLCVKGEDLDSQVGVIDFSMYLKNEEGHHHHHH	soluble
KTNRRSETNIIRFNNSIFSAAVDYLNEMYNKQLGSICEPLINAYADVEQESPRNKQQGYVKVEFLEPDEEHDYTEQTLISLGMEVEHLLQSGVKLNDIAILVRKNKSIPRIADYFDKQLNYKIVSDEAFRLDASLAICMMLDALRYLSDPENRIVKAQLATNYQLQILHSEYDLNSLLLHKAEELFPPAFLERMAELRLMPLYELLEELFSLFELHRIEQQDAYLFAFFDAVTDYLQSHSSDPDSFIRYWNETLSGKTIPSGEVEGIRIFSIHKSKGLEFHTVLLPFCDWKLENETNNQLVWCVPQEAPFNELDIVPVNYSSAMAESVYRTDYLHERLQLWVDNLNLLYVAFTRAGKNLIIWSRKGQRNTMA	not soluble
AIALVSHGAIVKSAPKHWNGSKCPIRMQVRVPDPDRRSLLRAGAHIILGGLLATVIPGTSPSIAKIREKPTDKGEEAPKIDDEKELDKYVSGLKYEEELYENPDPAEKEVYRTPRVEREPEYKKKEDEILEKESKVLKEEAREAARESEVLRQEFEKR	soluble
MAHHHHHHMLRSTLTSLNTFLTSSVATPPISVIRTGPKWWADPERMVRQKLMYFTLGVDQLPLRRTAVIQRDLQRFHMCKPPPRVGDSTGYKRSRAAQLNTWYRRIQYQEYHMQHLFTRHVWGLLRVYPGNTTKIQGKADDGYVGYDSVPFHRYNRAPLPFPARELYERRK	not soluble
PQLDEARTNGLMKTLFPHQVLSTIQASRILKTYNGVVIADSTGLGKTRVAINLAVMAINDGRNPLLIAPKSALETTWKDEMDKTHVHIDSKRSEYLSQHPDEAIKEIQGKDFIIVDEAHYFKSPGSNRYSVLRDLMAAGQKQIVLLTATP	not soluble
MGKVILVTGVSRGIGKSIVDVLFSLDKDTVVYGVARSEAPLKKLKEKYGDRFFYVVGDITEDSVLKQLVNAAVKGHGKIDSLVANAGVLEPVQNVNEIDVNAWKKLYDINFFSIVSLVGIALPELKKTNGNVVFVSSDACNMYFSSWGAYGSSKAALNHFAMTLANEERQVKAIAVAPGIVDTDMQVNIRENVGPSSMSAEQLKMFRGLKENNQLLDSSVPATVYAKLALHGIPDGVNGQYLSYNDPALADFMP	soluble
